{"source": "paper PMC10519446"}
{"substrate": "Nc1ncnc2c1ncn2[C@@H]1O[C@H](COP(=O)(O)OP(=O)(O)OP(=O)(O)O)[C@@H](O)[C@H]1O", "assay": "purified protein", "conditions": "co-substrate N-acetylmannosamine", "units": {"kcat": "s⁻¹"}}
{"protein": "NanK (N-acetylmannosamine kinase) (Escherichia coli K-12) (protein) MTTLAIDIGGTKLAAALIGADGQIRDRRELPTPASQTPEALRDALSALVSPLQAHAQRVAIASTGIIRDGSLLALNPHNLGGLLHFPLVKTLEQLTNLPTIAINDAQAAAWAEFQALDGDITDMVFITVSTGVGGGVVSGCKLLTGPGGLAGHIGHTLADPHGPVCGCGRTGCVEAIASGRGIAAAAQGELAGADAKTIFTRAGQGDEQAQQLIHRSARTLARLIADIKATTDCQCVVVGGSVGLAEGYLALVETYLAQEPAAFHVDLLAAHYRHDAGLLGAALLAQGEKL", "Km": "(1.4 ± 0.2)×10^−4 M", "kcat": "29 ± 0.5"}
{"protein": "NanK (N-acetylmannosamine kinase) (Escherichia coli K-12; L84R) (protein) MTTLAIDIGGTKLAAALIGADGQIRDRRELPTPASQTPEALRDALSALVSPLQAHAQRVAIASTGIIRDGSLLALNPHNLGGLRHFPLVKTLEQLTNLPTIAINDAQAAAWAEFQALDGDITDMVFITVSTGVGGGVVSGCKLLTGPGGLAGHIGHTLADPHGPVCGCGRTGCVEAIASGRGIAAAAQGELAGADAKTIFTRAGQGDEQAQQLIHRSARTLARLIADIKATTDCQCVVVGGSVGLAEGYLALVETYLAQEPAAFHVDLLAAHYRHDAGLLGAALLAQGEKL", "Km": "(8.3 ± 1.4)×10^−5 M", "kcat": "17 ± 0.3"}
{"protein": "NanK (N-acetylmannosamine kinase) (Escherichia coli K-12; L84P) (protein) MTTLAIDIGGTKLAAALIGADGQIRDRRELPTPASQTPEALRDALSALVSPLQAHAQRVAIASTGIIRDGSLLALNPHNLGGLPHFPLVKTLEQLTNLPTIAINDAQAAAWAEFQALDGDITDMVFITVSTGVGGGVVSGCKLLTGPGGLAGHIGHTLADPHGPVCGCGRTGCVEAIASGRGIAAAAQGELAGADAKTIFTRAGQGDEQAQQLIHRSARTLARLIADIKATTDCQCVVVGGSVGLAEGYLALVETYLAQEPAAFHVDLLAAHYRHDAGLLGAALLAQGEKL", "Km": "(1.4 ± 0.3)×10^−4 M", "kcat": "13 ± 0.2"}
